Reference: patent US11903969

Target: CD19 on CD19+ cells (Nalm6-GL, Raji, donor B cells) (UniProt P15391)
Experiment: cell-based or functional assay

Sequence of UniProt P15391 (P15391 20-556 limits assumed): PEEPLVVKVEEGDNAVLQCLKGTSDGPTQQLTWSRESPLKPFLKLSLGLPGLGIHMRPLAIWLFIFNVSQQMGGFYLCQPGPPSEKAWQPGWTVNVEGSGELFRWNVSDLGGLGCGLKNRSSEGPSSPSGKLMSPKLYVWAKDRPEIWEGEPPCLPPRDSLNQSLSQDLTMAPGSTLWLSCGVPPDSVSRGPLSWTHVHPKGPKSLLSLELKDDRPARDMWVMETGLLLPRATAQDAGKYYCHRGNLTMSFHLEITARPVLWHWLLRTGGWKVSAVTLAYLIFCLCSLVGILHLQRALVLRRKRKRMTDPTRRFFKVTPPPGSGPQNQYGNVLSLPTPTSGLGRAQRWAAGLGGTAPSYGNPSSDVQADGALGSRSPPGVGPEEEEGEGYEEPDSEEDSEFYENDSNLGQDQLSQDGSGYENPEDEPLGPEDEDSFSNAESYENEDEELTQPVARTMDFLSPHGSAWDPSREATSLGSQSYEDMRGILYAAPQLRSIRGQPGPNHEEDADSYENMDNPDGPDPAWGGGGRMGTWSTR

CD19+ cell population (B cells) remaining 24 hours after gene targeting: 2.53%
Substance: CD19.28.ζ-CAR (CD19-specific chimeric antigen receptor with FMC63 scFv, CD28 hinge, transmembrane and intracellular sequences and CD3ζ intracellular domain) (from UniProt P10747 114-220; P20963 52-164)
